The text below walks through data of patent publication US8444990.

Test [1] has as its target soluble Her3 (Her3 extracellular domain) (UniProt P21860). As to the kind of experiment: EIA, plate coated with sHer3, control IgG at 100 µg/ml, absorbance at 405 nm.
Test [2] deals with soluble Her4 (Her4 receptor extracellular domain, residues 1 to 639) (human) (UniProt Q15303). As to the kind of experiment: EIA, plate coated with sHer4, control IgG at 100 µg/ml, absorbance at 405 nm.
Test [3] has as its target soluble Her2 (Her2 extracellular ligand binding domain, residues 1-653, fused to the FLAG sequence) (UniProt P04626). Kind of test: EIA, plate coated with sHer2, control IgG at 10 ng/ml, absorbance at 405 nm.

Chain of UniProt Q15303 (Q15303 other isoform, or with tags, fused parts or gaps limits assumed, form in doubt): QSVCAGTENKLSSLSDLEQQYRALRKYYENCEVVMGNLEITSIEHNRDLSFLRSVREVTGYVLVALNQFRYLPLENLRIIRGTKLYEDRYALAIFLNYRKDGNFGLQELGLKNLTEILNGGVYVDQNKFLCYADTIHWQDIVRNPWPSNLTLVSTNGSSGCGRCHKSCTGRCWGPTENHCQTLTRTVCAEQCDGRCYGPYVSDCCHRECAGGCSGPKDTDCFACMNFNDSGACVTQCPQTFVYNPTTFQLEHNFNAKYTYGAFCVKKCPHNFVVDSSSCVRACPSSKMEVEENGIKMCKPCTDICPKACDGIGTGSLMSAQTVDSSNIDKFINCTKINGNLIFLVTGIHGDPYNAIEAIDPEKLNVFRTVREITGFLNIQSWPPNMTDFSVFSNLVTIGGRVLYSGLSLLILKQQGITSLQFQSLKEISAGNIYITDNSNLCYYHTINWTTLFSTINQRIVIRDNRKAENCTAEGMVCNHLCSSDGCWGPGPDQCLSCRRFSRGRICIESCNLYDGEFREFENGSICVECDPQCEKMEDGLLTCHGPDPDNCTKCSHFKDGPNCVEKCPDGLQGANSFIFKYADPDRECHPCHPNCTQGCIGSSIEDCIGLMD
Chain of UniProt P21860 (P21860 20-643 limits assumed): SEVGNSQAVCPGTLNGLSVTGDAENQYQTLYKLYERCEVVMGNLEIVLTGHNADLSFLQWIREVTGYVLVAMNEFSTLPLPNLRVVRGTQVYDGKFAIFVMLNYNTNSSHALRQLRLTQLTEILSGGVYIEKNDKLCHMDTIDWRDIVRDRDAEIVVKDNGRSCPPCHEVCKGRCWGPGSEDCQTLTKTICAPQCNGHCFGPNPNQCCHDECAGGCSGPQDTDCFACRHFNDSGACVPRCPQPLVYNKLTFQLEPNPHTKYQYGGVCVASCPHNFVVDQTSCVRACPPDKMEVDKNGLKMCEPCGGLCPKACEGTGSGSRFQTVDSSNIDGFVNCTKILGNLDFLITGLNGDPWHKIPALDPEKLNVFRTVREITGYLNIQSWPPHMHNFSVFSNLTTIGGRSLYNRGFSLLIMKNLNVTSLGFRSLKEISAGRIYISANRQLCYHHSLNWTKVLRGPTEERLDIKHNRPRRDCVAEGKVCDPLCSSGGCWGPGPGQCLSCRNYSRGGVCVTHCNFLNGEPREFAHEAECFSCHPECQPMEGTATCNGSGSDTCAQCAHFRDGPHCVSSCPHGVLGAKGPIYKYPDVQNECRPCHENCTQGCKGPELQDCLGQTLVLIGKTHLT

Turning to Mouse IgG (antibody), the O.D. of 100 ug/ml in test [1] was found to be 1.2 O.D; in test [2], 0.9 O.D. In test [3], this substance displayed an O.D. of 10 ng/ml of 0.09 O.D.
